In the supplement of paper PMC12042874:
± gives the uncertainty stated by the source.

Assay: amyloid nucleation score (Sup35N fusion, yeast selection) (log enrichment); library NNK2; higher = more nucleation; inactive = no reads after selection
In short: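 Peptides of 20 random codons, each fused to Sup35N, were expressed in psi-negative yeast. Cells were induced with 100 μM copper sulfate for 24 hours and grown 7 days at 30°C on medium lacking adenine and uracil, and plasmid inserts before and after selection were Illumina-sequenced. Nucleation scores are DiMSum log enrichments of output over input reads, centred on the mode score of non-aggregating sequences, and sequences under 100 input reads were excluded.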

Substance	amyloid nucleation score
CSMFSKLMVNSGLSSVLTVM	0.047 ± 0.28
ASGQWGPD	-0.67 ± 0.76
NYIVVARFYSRVVFFRV	inactive
YNLCWCRVIDFCLCWYCILW	4.94 ± 0.081
FGIFEQMMFLHNVCSDFTAS	-0.447 ± 1.1
VYFLMLDY	-0.526 ± 0.49
CSFLYIGLVIPSFEYDHALL	4.171 ± 0.041
DFMFFVYPSNSMLKGISRGR	-1.77 ± 0.48
VCASYMQFIDHCSKKEVWLN	-1.1 ± 0.44
GFIGNCYSFASLFGPMSHYV	-0.588 ± 1.1
IVAFARVITLMRLLADGSTV	0.608 ± 0.54
IRSLFLVDYNRMIGMPKGMY	1.55 ± 0.2
IFCAGYDNPRFINLLLLPKG	3.05 ± 0.1
PCSWPNPHLRIGFRLKSPPP	4.34 ± 0.076
ILWLTADFTLLISNYMCLS	inactive
SPTNIRP	-0.185 ± 0.47
LHRTLSRRTEVR	3.54 ± 0.086
FSNSPVISFGQ	-0.541 ± 1
IPLQSTMRFRCPVMDLGNFI	-0.849 ± 1
YFHVVFL	2.75 ± 0.094
RLFLSSNST	-1.49 ± 0.54
ICPRRS	0.474 ± 0.34
SVKQLTPD	-0.319 ± 0.6
LFASALFRMVSAFLEVAIL	0.722 ± 0.43
LRFRGV	0.339 ± 0.28

Substance	amyloid nucleation score
RGHSALFTNFCGTMCGVVDG	0.148 ± 1
CVCYDLYELLAITQLHLWSF	-0.344 ± 0.48
RSFHVEYILM	3.23 ± 0.068
HVRGDLSRTGKWVMLRCYTR	inactive
ASFMPLFGGLGFLQKNEITM	3.7 ± 0.077
DRRGQQVLGPACRGCWFWPD	0.305 ± 1
HFIKKGDYNKTTKYSPCNEL	-0.941 ± 0.45
ILMRSYDFALGPNQCIIRAK	4.95 ± 0.074
GSRHRDLYLGLRLYYTDVEV	-0.763 ± 0.36
WFVGCHTVRR	0.84 ± 0.33
LCVYNPNVKYVHPCWTASGG	-0.529 ± 0.44
DFISCVLFSLFFRTLSRKGH	-0.679 ± 0.64
RSNNTIFGKLFSGAILLCWV	-1.2 ± 1
MPVHSQSRMVRRRVDKTI	-0.632 ± 0.76
QRRQVDSVM	1.27 ± 0.27
RNGLILCLGEVVMSSMESVT	-0.646 ± 0.61
LVNFSSLIV	-2.07 ± 1.1
MMNCNVLMDKSSCFRYIVWG	3.77 ± 0.051
IISSGSIDCVYWTWFLRY	-0.396 ± 0.55
HVVLNFCDTVWLMSKAP	9.03 ± 0.078
SCSRLVFRRVVSGIISLCME	-0.901 ± 0.79
EVSTWQLPMNTDTVEGGSVV	1.16 ± 0.25
MVVYRVPMAQLLPS	inactive
IIWQPHSPCVRVYTCLSLIF	-1.67 ± 0.53
VHPSDGAGLYS	-1.34 ± 0.78

Substance	amyloid nucleation score
RSLDVLTTVVMRAFNPTRLR	0.953 ± 0.36
ISFLSNR	1.58 ± 0.27
FTVLEHRMFILSYVLRTRVW	0.468 ± 0.74
MDLMGCLYYPDT	1.05 ± 0.35
YAEHYWHLDNRTDWGIKEGY	-0.78 ± 0.61
NRKTIIVEPTNACRS	0.775 ± 0.29
TLVCWCLIFNVDKPFCVLML	inactive
TYTKFISILRSALSLMYLAS	0.972 ± 0.67
VSMGNGARH	0.194 ± 0.2
ANRWSMQGSERASSANWHRW	4.63 ± 0.054
TDALANSNRPSKFQVH	-0.059 ± 0.37
FMVVC	0.249 ± 0.39
IVSAMQLEHESQCKFGMNWV	0.082 ± 0.42
AVRELVYDLLASKNFWTSNA	0.932 ± 0.2
SLTLHLSEWGAISPN	-0.347 ± 1
GKHIGSLSEWTMVHHDGARR	1.21 ± 0.32
SSRWQFYGHF	0.518 ± 0.26
NGGAVFCVHACYGFRGRYER	5.05 ± 0.045
SMSSNVRTYNQFTHL	0.716 ± 0.53
HGLTYIGIKCTYIKRVTWVR	0.389 ± 0.57
QTNGGEGQ	0.705 ± 0.24
EKLWIMLTLICNIVRSPSYK	-0.515 ± 1.1
LRYVVNPF	-0.979 ± 0.37
CNFHCPI	2.63 ± 0.17
FWIEDF	-0.291 ± 1.1

Substance	amyloid nucleation score
CKENFKIFFDFYYGMTSVLS	inactive
TMLEFNCSYLNI	2.98 ± 0.083
YGFDLKSGQSADASCASVSG	0.586 ± 0.31
NIVVPRRL	2.53 ± 0.13
RARIWALGYSLEEIRRGLED	3.19 ± 0.11
RHSCFICFNVLVICGLNLSL	5.927 ± 0.037
WVDMAL	0.168 ± 0.8
TLHKLFQMNLGRR	-0.738 ± 0.44
LVYESSDYFVNIIEDNLLVS	inactive
GIKHLKGTNDTSMYCHVSIV	0.298 ± 0.4
PMMYQRLCIMFFCSTITLMI	1.92 ± 0.14
CVCSVYAGNFCLIVLVWLMV	0.433 ± 0.74
SYPYFMLRTTLNTLKTWFWM	-0.403 ± 1
YTIIKWPL	-0.21 ± 0.79
ANGLVPYVTFLVLYALHTGT	1.41 ± 0.38
NQGIKRRLFHNWLNRGRLLF	inactive
RILFWSYA	-0.407 ± 0.48
FQYYDKYLYWFFVNN	-2.12 ± 0.73
CNYMSVWN	-0.021 ± 0.74
TLVCSKAFKYVGV	0.131 ± 0.46
RERVFIGNGWTRLSRARGQA	-1.15 ± 0.62
TMSVDCWLCNLRMEMFLELY	-1.54 ± 0.75
TRGKRVPPDVLSSPKRIANV	1.12 ± 0.46
NSRNSSYKWFSSSFVHVADF	1.71 ± 0.088
WLLMYPLI	-1.04 ± 0.34

Substance	amyloid nucleation score
GRVRKSHTVGSACNILYSCA	1.32 ± 0.29
DQKTMTTVL	0.368 ± 0.45
VILNYSRY	4.5 ± 0.078
YGRPIIVMYKLLRQNSSSRL	-0.496 ± 0.48
FMMHRVSTRFASKNAS	-0.072 ± 1.1
RSHLSTLEMSTSIGKGNPNY	0.685 ± 0.56
DLYQALSISV	-0.308 ± 0.39
RKIMNGKV	-0.414 ± 0.64
IDLLFDFTDLMWLIYPVFLL	-1.93 ± 0.75
LYTRMPMYGHSEKFLVCESS	-0.486 ± 0.27
IRGGHTLSYRVEDKRPTEWG	2.04 ± 0.2
KGGQK	-0.493 ± 0.34
MKTSLYRRGNPRLYREKSRK	1.01 ± 0.27
QVSFEFNRLMGCMLKMTMMT	-0.308 ± 0.49
NMPFYRFAKRTWFRNPQSFV	-1.19 ± 1
NGFVSSSRSFICFRWKWRYY	0.255 ± 1.1
KWVGQLTVVMWLKCNPFCFE	0.257 ± 0.64
MYCYSHDQCESLGQRSFGDT	0.218 ± 0.8
MVVGFRLPERLTYWRGGHMS	5.324 ± 0.047
NSMNVGSFRSSEWLVLFENV	-0.453 ± 1.1
SPDATGYTNKVLGSRLIRRR	1.44 ± 0.38
ILLNGRSFLRS	0.174 ± 1
RTGGNILQYFYIVRAHSGWC	1.35 ± 0.16
FQIREVGEVLNC	-0.202 ± 1.1
VRLFVFSKVKGLIMVNCSWK	-1.35 ± 0.44

Substance	amyloid nucleation score
DWSVKCGVMERI	-0.295 ± 0.4
ALENSDSELCETAWFFHFMH	0.185 ± 0.8
KVRFHSL	2.72 ± 0.11
YDSWLDTVVFDFFCLCLDKA	-1.42 ± 0.75
GCVGAVRRLEGSIVYEDRTL	0.944 ± 0.25
TFRCVVRPLGMRSVLMAGSG	0.852 ± 0.47
ERSVDYSLTL	-0.43 ± 0.45
RAWETNFRVTTLDCNNYSSS	inactive
YAMGGGKGEDDLSCWYDYAC	0.219 ± 0.47
CPLFYMSMISGFEGIFSLHK	inactive
IDSWCVTHATKIGSYWML	0.12 ± 0.34
VLYYTPRLSVERMGFHNMIY	-0.46 ± 1
ISVKFNEEACKFYDLCN	-0.294 ± 1
PSSGPPNESAMSPITYSGEG	-0.684 ± 1.1
YIDLLGRVCHYSLGWLCYCM	-1.05 ± 1.1
VSWAVGQGWTVRSSPRVCGE	0.267 ± 0.42
VRLNMFFSGEFCQGMQLWVS	inactive
TLWVWVCCFQDWCSVSRGGR	8.892 ± 0.03
SCDLYDTKSESFWLPSNMGS	0.73 ± 0.44
GNLLVGAKSMVLSRFIGLYR	2.16 ± 0.23
IMHSLLRSGN	inactive
FSAYLLLLYKN	-0.738 ± 0.76
RDARNKFCDGLTVGILGACM	-0.368 ± 0.29
LGRIHYNLFYVYV	2.27 ± 0.14
VRCLVRYYAVR	-0.649 ± 0.79

Substance	amyloid nucleation score
TEGYNMCDWCSSSLVKSVRM	-0.223 ± 0.49
YFWLVFLKKHRQGLEGKGGW	0.004 ± 0.62
SDGSGNGEWSEMQVLWTRSN	1.07 ± 0.33
RPWVHTGW	0.277 ± 0.57
DFYSNYILLRSSP	-1.84 ± 1
RWLVRTEKSS	2.03 ± 0.1
EKFYLDLG	-0.006 ± 0.54
NQLRVLMTFFWPGMLNTPAV	-0.089 ± 1.1
VYMPYHLSYMLEPRQNSVLS	-0.744 ± 1.1
NYLRYLLMDSHMRLMDRWKQ	4.87 ± 0.069
LVFMAFC	4.839 ± 0.04
SFGVGEFDVNYLMERRF	-0.066 ± 0.4
SYENTSV	0.376 ± 0.66
IRDWHWTNVGSCNCCFFCQG	9.244 ± 0.079
CSEVQNLFNM	inactive
LNNNGASNGFTTYSALNVG	-0.59 ± 0.28
VGYSEMGVADLGHGGW	1.15 ± 0.31
WSVDYDGCLCS	-0.094 ± 0.45
CKALCIKIWVERVTC	2.31 ± 0.16
CVCDLCVPWVLNFGR	8.914 ± 0.051
CYGLYPEDLLCMYGKLDLPR	0.229 ± 0.61
AYDRIY	0.367 ± 0.74
TMCMPAHMPYQHVSYLDILT	-0.161 ± 1.1
KINMLCFSWGSCVGGCRKVC	7.063 ± 0.055
